No end group written: not given here. 5Flu = C-terminal fluorescein
Tests used:
CRIP1a = target: T1, CRIP1a (Rattus norvegicus, UniProt Q5M7A7); experiment: Fluorescence polarization of fluorescein-labeled peptides binding to CRIP1a; conditions: 20 nM peptide, CRIP1a 0–250 μM, 30 min, room temperature, 25 mM Hepes pH 7.5, 100 mM NaCl, 5 mM MgCl2, 0.1 mM EDTA, 2 mM TCEP, 10% glycerol, λex 470 nm, λem 530 nm, biological quadruplicates, three separate days
T1 sequence (Q5M7A7 1-164): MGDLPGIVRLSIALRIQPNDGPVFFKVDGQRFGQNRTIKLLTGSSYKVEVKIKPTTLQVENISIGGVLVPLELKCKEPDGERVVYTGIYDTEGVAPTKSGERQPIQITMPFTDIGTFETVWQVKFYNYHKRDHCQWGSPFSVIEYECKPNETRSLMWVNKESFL

[1] = target: N-terminally myristoylated 9-mer peptide mimicking the Gαi N terminus (Myr-…-5Flu); experiment: fluorescence polarisation

| Substance | binding to CRIP1a (in words) (CRIP1a) | Kd [1] [µM] |
| --- | --- | --- |
| nonmyristoylated Gα peptide: corresponding nonmyristoylated peptide used as the control (GCTLSAEDK-5Flu) | unable to readily bind |  |
| Cannabinoid receptor interacting protein 1a (from UniProt Q5M7A7 1-164) (natural protein) |  | 21.2 |
| 5Flu-SQGKSSC(Farn)-OMe [Rheb-Farn peptide] | inability to bind |  |
| Myr-GTASSLVSPK-5Flu [Myr-NHPH3 peptide] | unable to readily bind |  |

Source: paper PMC8446797 (The Journal of Biological Chemistry, 2021)
